Measurements reported in PMC6907008.

Experiments:
[1] = target: T1, HisZea (Lmo2686) (Listeria monocytogenes EGD-e) (UniProt Q8Y3Z3); assay: EMSA; details: EMSA: 50 mM Tris pH 8.0, 300 mM NaCl, 10% glycerol, 50 ug/mL BSA, 1 ug yeast tRNA, 20 min room temperature; pull-down: 25 mM Tris pH 8.0, 150 mM KCl, 5 mM …
T1 sequence: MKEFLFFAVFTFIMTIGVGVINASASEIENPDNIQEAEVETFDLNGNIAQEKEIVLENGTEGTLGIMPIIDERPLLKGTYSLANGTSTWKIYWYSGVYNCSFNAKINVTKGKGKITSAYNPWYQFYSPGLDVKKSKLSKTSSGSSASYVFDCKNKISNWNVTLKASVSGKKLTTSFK

[2] = target: T1, HisZea (Lmo2686) (Listeria monocytogenes EGD-e); assay: competition; details: EMSA: 50 mM Tris pH 8.0, 300 mM NaCl, 10% glycerol, 50 ug/mL BSA, 1 ug yeast tRNA, 20 min room temperature; pull-down: 25 mM Tris pH 8.0, 150 mM KCl, 5 mM …

“GGGUGUAAAAUGCAGCUUGAGUAAAAUGAAUGAGUGUGUUGUUUACCCCCAGAUUUAAUUCUGUGGUAUAUCGCGUAACCGGCGGCUGCUAUGGUGAUGGUAUAUGAAGGUAAACUGCCCUGAUUUGGUUUUACGUCACGUUUGUUUUAUAC [rli92]” was tested, and the binding [1] was “binds” and the binding [2] was “binds”.

In the case of “GGAGUAGAAAAGACCAAUGUGGGUUCUUUUUUAUUUUGUCUUAAUAACUCUAAACCACAGACAAAUAUAAAUUGGAAAUCAACGUAAUAAUCGUAUUUCCUAUUACAAUAAUCGAGAUAUUGUCACACCCUGAAAUAUAAUUGUAAUGCAAUUAACCUAUAGAUGAAAAACUGU [rli143]”, the binding [1] is reported as “binds” and the binding [2] is reported as “binds”.
